This is an account of results in patent publication US11046771 (dated 2021).

Assay [1] concerns the target T1, HER2 (cell surface) (human, UniProt P04626). Briefly: FACS, A431 cells.
The target of assay [2] is T1, HER2 (cell surface). Briefly: FACS, AU565 cells. (In flow cytometry, cells or beads pass a laser one at a time.)

B1: 098 (PC1014-098) (antibody, V domains shown)
VH: EVQLLESGGGLVQPGGSLRLSCAASGFTFSNYGMSWVRQAPGKGLEWVSAISGSAYSTYYADSVKGRFTISRDNSKNTLWLQMNSLRAEDTAVYYCAKAHYHGSGSYYTLFDYWGQGTLVTVSS
VL: DIQMTQSPSSLSASVGDRVTITCRASQGISSWLAWYQQKPEKAPKSLIYAASSLQSGVPSRFSGSGSGTDFTLTISSLQPEDFATYYCQQYNSYPYTFGQGTKLEIK
One may read the EC50 as the concentration at which the effect is half-maximal. As for B1, the EC50 is 0.068 µg/mL in assay [1] and 0.336 µg/mL in assay [2].
